First the molecules themselves.
B1: Cbln1: Cbln1N79Q (protein)
parent chain: MLGVVELLLLGTAWLAGPARGQNETEPIVLEGKCLVVCDSNPTSDPTGTALGISVRSGSAKVAFSAIRSTNHEPSEMSNRTMIIYFDQVLVNIGNNFDSERSTFIAPRKGIYSFNFHVVKVYNRQTIQVSLMLNGWPVISAFAGDQDVTREAASNGVLIQMEKGDRAYLKLERGNLMGGWKYSTFSGFLVFPL
B2: Cbln1: Cbln1N23Q (protein)
parent chain: B1 parent chain
B3: Cbln4: Cbln4N26Q (protein)
parent chain: MGSARRALSVVPAVLLILVLPVWAQNDTEPIVLEGKCLVVCDSNPATDSKGSSSSPLGISVRAANSKVAFSAVRSTNHEPSEMSNKTRIIYFDQILVNVGNFFTLESVFVAPRKGIYSFSFHVIKVYQSQTIQVNLMLNGKPVISAFAGDKDVTREAATNGVLLYLDKEDKVYLKLEKGNLLGGWQYSTFSGFLVFPL
B4: Cbln4: Cbln4N85Q (protein)
parent chain: B3 parent chain
B5: Cbln2: Cbln2N53Q (protein)
parent chain: MPAPGQGPRGPLLSMPGRRGALREPADFGSSLGAVLALLLLLLPACCPVRAQNDTEPIVLEGKCLVVCDSSPSGDGAVTSSLGISVRSGSAKVAFSATRSTNHEPSEMSNRTMTIYFDQVLVNIGNHFDLASSIFVAPRKGIYSFSFHVVKVYNRQTIQVSLMQNGYPVISAFAGDQDVTREAASNGVLLLMEREDKVHLKLERGNLMGGWKYSTFSGFLVFPL
B6: Cbln2: Cbln2N110Q (protein)
parent chain: B5 parent chain
B7: Cbln1: N23Q (protein)
parent chain: B1 parent chain
B8: Cbln1: N79Q (protein)
parent chain: B1 parent chain
B9: Cbln2: N110Q (protein)
parent chain: B5 parent chain

One data set in a line: co-IP from conditioned medium. The conditions noted are these: glycan lost; control: wild type.
On to B1, for which the oligomerisation entry was “no change”.

Turning to B2, the oligomerisation result was “no change”.

Turning to B3, the oligomerisation entry is “no change”.

In the case of B4, the oligomerisation result was “no change”.

Another data set can be described thus: native gel electrophoresis, HA immunoblot. The conditions noted are these: glycan lost; control: wild type.
As to B1, the oligomerisation result was “no change”.

In the case of B2, the oligomerisation entry was “no change”.

Take B3: the oligomerisation result was “changes”.

Consider B4, for which the oligomerisation entry was “no change”.

B5: the oligomerisation entry is listed as “no change”.

For the protein B6, the oligomerisation result was “no change”.

A further data set can be described thus: immunoblot of HEK293T conditioned medium. The conditions noted are these: glycan lost; control: wild type.
Regarding B7, the expression_or_secretion result is listed as “no change”.

With B8, the expression_or_secretion entry is reported as “no change”.

For B9, the expression_or_secretion entry is on record as “no change”.

For the origin of these results see PMC6026032.
